Biological target: T1, human Clec9A (human, UniProt Q6UXN8 1-241)
T1 construct: Expressed on transfected CHO-K1, HEK293-T and HL116 cells, or native on human dendritic cells; also called hClec9A; C-type lectin domain family 9 member A
Assay: flow cytometry on HEK293-T cells transfected with human Clec9A; His-tagged VHH at 2 µg/ml, anti-His FITC antibody; single concentration
Procedure: The binding characteristics of various VHHs (as described in Example 1) were tested by flow cytometry. HEK293-T cells were transfected with a human Clec9A expression plasmid and stained with the His-tagged VHHs at 2 μg/ml, followed by staining with an anti-His Fitc conjugated antibody. Binding was measured by detecting cellular fluorescence via flow cytometry.

T1 sequence (Q6UXN8 whole entry, the tested form may be a part): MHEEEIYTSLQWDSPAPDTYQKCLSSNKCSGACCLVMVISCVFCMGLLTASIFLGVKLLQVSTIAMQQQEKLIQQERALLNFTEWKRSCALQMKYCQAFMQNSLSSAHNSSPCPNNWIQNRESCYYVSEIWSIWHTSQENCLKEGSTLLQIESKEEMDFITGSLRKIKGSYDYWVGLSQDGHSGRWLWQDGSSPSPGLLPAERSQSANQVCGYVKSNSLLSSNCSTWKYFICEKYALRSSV

Binder | binding result
1LEC 84 (VHH, Entry includes C-terminal AAA-HA-His6 (pMECS)) VHH: QVQLQESGGGLVQPGGSLRLSCAASGSIFSIAAMGWYRQAPGKQRELVAAITSGGRRAYADSVKGRFTISRDNDENTVALQMNSLKPEDTDVYYCNAKADHNDYWGQGTQITVSS | binds
1LEC 9 (VHH, Entry includes C-terminal AAA-HA-His6 (pMECS)) VHH: QVQLQESGGGLVQAGGSLRLSCAASGSITSINAMGWYRQAPGKQRELVAAITSGGRLSYADSVKGRFTISRDNAESTVALQMNSLKPEDTAVYSCAAFQSSGIDWGQGTQVTVSS | binds
2LEC 93 (VHH, Entry includes C-terminal AAA-HA-His6 (pMECS)) VHH: QVQLQESGGGLVQAGGSLRLSCAASGSIFSINAMGWYRPALGEQRELVAAITTGGRTTYVDSVKGRFSISRDNAKNTVYLQMNSLKPEDTAVYFCKAFTRDEDFWGQGTQVTVSS | binds
2LEC 53 (VHH, Entry includes C-terminal AAA-HA-His6 (pMECS)) VHH: QVQLQESGGGLVQAGGSLRLSCAASGSIDSINAMGWYRPALGEQRELVAAITTGGRTAYVDSVKGRFTISRDAAKNTVYLQMNSLKPEDTAVYSCKAFTRDTDYWGQGTQVTVSS | binds
1LEC 30 (VHH, Entry includes C-terminal AAA-HA-His6 (pMECS)) VHH: QVQLQESGGGLVQAGGSLRLSCAASGSILSINSMGWYRPALGNQRELVAAITNDGRTTYVDSVKGRFTISRDNAKNTVYLQMNSLKPEDTAVYWCKAFTRDKDYWGQGTQVTVSS | binds
1LEC 63 (VHH, Entry includes C-terminal AAA-HA-His6 (pMECS)) VHH: QVQLQESGGGLVQAGGSLRLSCAATGDISSINAMGWHRPARGNERELVAAITNGGRTTYVDSVKGRFTISRDNAKNTVYLQMNSLKPEDTAVYFCKAYTRDEDYWGQGTQVTVSS | binds
1LEC 88 (VHH, Entry includes C-terminal AAA-HA-His6 (pMECS)) VHH: QVQLQESGGGLVQPGGSLRLSCAAIGNIASITAMGWYRQAPGKQRELVAAITSASASRTTYADSVKGRFTISRDNAKNTVYLQMNSLQPEDTAVYYCKGFRSGADDYWGQGTQVTVSS | binds
1LEC 70 (VHH, Entry includes C-terminal AAA-HA-His6 (pMECS)) VHH: QVQLQESGGGLVQPGGSLRLSCAASGSIFSINAMGWYRQAPGKQRELVAAITNQGRLTYADSVKGRFTISRDNAKNTVFLQMDSLKPEDTAVYYCNAKWYDPLVIEYYDNWGQGTQVTVSS | binds
2LEC 55 (VHH, Entry includes C-terminal AAA-HA-His6 (pMECS)) VHH: QVQLQESGGGLVQTGESLSLSCAVASGSIISINSMGWYRQAPEKQRELVAAITVDGRLAYADSAKHRFTISKESARNTVHLHMSSLKPEDTAVYYCTIWVRDGQQYWGQGTQVTVSS | binds
3LEC 11 (VHH, Entry includes C-terminal AAA-HA-His6 (pMECS)) VHH: QVQLQESGGGLVQPGGSLRLSCAASGSISSINAMGWYRQAPGKQRELVAAITGQGRTTYADSVKGRFTISRDGAKNTVYLQMNSLKPEDTAVYYCKVFAADGMEYWGKGTQVTVSS | binds
1LEC 92 (VHH, Entry includes C-terminal AAA-HA-His6 (pMECS)) VHH: QVQLQESGGGLVQPGGSLRLSCAASGSISSINAMGWYRQAPGNQRELVAAITNQGRVTYADSVKGRFTISRDGAKNTVYLQMNSLKPEDTAVYYCKVFAASGMEYWGKGTQVTVSS | binds
3LEC 69 (VHH, Entry includes C-terminal AAA-HA-His6 (pMECS)) VHH: QVQLQESGGGLVQPGGSPRLSCAASGRFFRVNAMGWYRQAPGKQRELVAAITNGGQTAYADSVKGRFTISRDSAKNTVYLQMNSLKSEDTAVYYCKVFAADGMEYWGKGTQVTVSS | binds
1LEC 7 (VHH, Entry includes C-terminal AAA-HA-His6 (pMECS)) VHH: QVQLQESGGGLVQPGGSLRLSCAASGRISSINSMGWYRQAPGNQRELVAAITNGGAKTYADSVKGRFTISTDNAGNTVYLQMDSLRPEDTAVYYCKAFTRRDDYWGQGTQITVSS | binds
3LEC 66 (VHH, Entry includes C-terminal AAA-HA-His6 (pMECS)) VHH: QVQLQESGGGLVQPGGSLRLSCAASRSFFSFNAMGWYRQAPGKQRELVAAITNGGRIAYGTSVMGRFTISRDNAKNTVYLQMDSLKPEDTAVYYCNAKPAPVYGSTVGDYWGQGTQVTVSS | binds
2LEC 90 (VHH, Entry includes C-terminal AAA-HA-His6 (pMECS)) VHH: QVQLQESGGGLVQTGGSLRLSCAASGSIFSFNAMGWYRQAPGKQRELVAAITDGGRLTYADSAKGRFTISRENTRNTVHLQMSSLKAEDTADYYCTIWTRDRQQYWGQGTQVTVSS | binds
2LEC 23 (VHH, Entry includes C-terminal AAA-HA-His6 (pMECS)) VHH: QVQLQESGGGLVQPGGSLRLSCAASGTSFSINGMAWYRQAPGGQRELVGGITSDGSTGYADSVKGRFTVSRDNAKNTVYLQMNRLKPEDTAVYYCGTSTPRGDSYWGQGTQVTVSS | binds

The next lines start with the values.

binding result | Binder
binds | 1LEC 42 (VHH, Entry includes C-terminal AAA-HA-His6 (pMECS)) VHH: QVQLQESGGGLVQPGGSLRLSCAASGRVFSINAMGWYRQAPGKQRELVAAITNQGATTYADSVKGRFTISRDTAGNTVYLQMNSLRPEDTAVHYCKAFTRTDDYWGQGTQVTVSS
binds | 2LEC 68 (VHH, Entry includes C-terminal AAA-HA-His6 (pMECS)) VHH: QVQLQESGGGLVQPGESLRLSCAASGSIFSINAMGWYRQAPGKQRELVAAITDGGAKTYADSVKGRFTISTDNAGNTVYLQMDSLRPEDTAVYYCKAFTRGNDYWGQGTQVTVSS
binds | 2LEC 38 (VHH, Entry includes C-terminal AAA-HA-His6 (pMECS)) VHH: QVQLQESGGGLVQPGGSLRLSCAASGRIFDINAMGWYRQAPGKQRELVAAITNGGQTTYADSVKGRFTISRDNAGNTVYLQMNSLRPEDTAVYYCKAFTRSDDYWGQGTQVTVSS
binds | 3LEC 57 (VHH, Entry includes C-terminal AAA-HA-His6 (pMECS)) VHH: QVQLQESGGGLVQPGGSLRLSCAASGRISSINSMGWYRQAPGKQRELVAAITNGGAKTYADSVKGRFTISRDGAGNTVYLQMDNLRPEDTAVYYCKAFTRTYDYWGQGTQVTVSS
binds | 3LEC 36 (VHH, Entry includes C-terminal AAA-HA-His6 (pMECS)) VHH: QVQLQESGGGLVQPGGSLRLSCAASGRIGSINSMGWYRQAPGKQREMVAAITNGGATVYADSVKGRFTISRDNAGNTVDLHMNSLRPEDSAVYYCKAFTRGDDYWGQGTQVTVSS
binds | 2LEC 13 (VHH, Entry includes C-terminal AAA-HA-His6 (pMECS)) VHH: QVQLQESGGGLVQAGASLRLSCAASGSIFSINAMGWYRQAPGKQRELVAAITNQGRTTYADSVKGRFTISRDNAKNTVYLQMDSLEPEDTAIYYCKGFSPTGDYWGQGTQVTVSS
binds | 2LEC 6 (VHH, Entry includes C-terminal AAA-HA-His6 (pMECS)) VHH: QVQLQESGGGWVQPGGSLRLSCAATGSIVSINAIGWYRQAPGKQRELVASITNQGIRNYSTSVMGRFTISRDDVKNTVSLQMNSLKPEDSAVYYCKGFAGWGKEDYWGQGTQVTVSS
binds | 2LEC 59 (VHH, Entry includes C-terminal AAA-HA-His6 (pMECS)) VHH: QVQLQESGGGLVQPGGSLRLSCAVSRNFFSINAMGWYRQAPGKQRELVAAITNGGRIAYGTSVMGRFTISRDDAKNTVDLQMNSLRPEDTAVYYCNAKAIPVYGSTVEDYWGQGTQVTVSS
binds | 2LEC 16 (VHH, Entry includes C-terminal AAA-HA-His6 (pMECS)) VHH: QVQLQESGGGLVQPGGSLRLSCLASRSFSSFNAMGWYRQAPGKERELVAAITNGGRIAYGIAVNGRFTISRDNAKNTVYLQMNSLKPEDTAVYYCNAKPTPVYGSTVGDYWGQGTQVTVSS
binds | 1LEC 28 (VHH, Entry includes C-terminal AAA-HA-His6 (pMECS)) VHH: QVQLQESGGGLVQSGGSLRLSCAASGSVFSINAWGWYRQAPGKQRELVAAITNQGRIAYAPSVNGRFTISRDSAKNTVYLQMNSLKPEDTAVYYCNAKPTPVYGSTVGDYWGQGTQVTVSS
binds | 3LEC 55 (VHH, Entry includes C-terminal AAA-HA-His6 (pMECS)) VHH: QVQLQESGGGLVQPGGSLKLSCAASGSIFSFNAMGWYRQAPGKQRELVAAITDGGRLTYADSAKNRFTISRENTRNTVHLQMSSLKAEDTAVYYCTIWTKDRQQYWGQGTQVTVSS
binds | 3LEC 30 (VHH, Entry includes C-terminal AAA-HA-His6 (pMECS)) VHH: QVQLQESGGGLVQTGGSLRLSCAASGSIFSINSMGWYRQAPGKQRELVAAITSQGRSTYADSAKGRFTISLGNARNTVNLQMSSLKTEDTAVYYCTIWARDRQQYWGQGTQVTVSS
binds | 2LEC 26 (VHH, Entry includes C-terminal AAA-HA-His6 (pMECS)) VHH: QVQLQESGGGLVETGGSLRLSCAASGSIFSINAMGWYRQAPGKQRELVAAITDQGRLAYADSAKGRFTISRENARNTLHLQMSSLKAEDTAVYYCTIWDRDRQQYWGQGTQVTVSS
binds | 1LEC 62 (VHH, Entry includes C-terminal AAA-HA-His6 (pMECS)) VHH: QVQLQESGGGLVQPGGFLSLSCAASGSMHSVNSMAWYRQVPGKQRELVAAITSGGRLAYAPSVNGRFTISRDYAKNTIHLQMNSLEPEDTAVYYCAALNSATTYWGQGTQVTVSS
binds | 2LEC 48 (VHH, Entry includes C-terminal AAA-HA-His6 (pMECS)) VHH: QVQLQESGGGLVQAGGSLRLSCAASGTLFSINGMAWYRQAPGKRRELVGGITSDGSTGYADSVKGRFTISRDNAKNTAYLQMNSLKPEDTAVYYCGTSTPRGDSYWGQGTQVTVSS
binds | 1LEC 91 (VHH, Entry includes C-terminal AAA-HA-His6 (pMECS)) VHH: QVQLQESGGGLVQPGGSLRLSCAASGFTFDDYAIGWFRQAPGKEHEGVSCISRSDGSTYYDDSVKGRFTISSDNAKNTVYLQMNSLKPEDTAVYYCAAEVPSTYSCSGFREDYKGKGTQVTVSS
binds | 2LEC 54 (VHH, Entry includes C-terminal AAA-HA-His6 (pMECS)) VHH: QVQLQESGGGLAQPGGSLQLSCAASGRAFSTNSMGWYRQASGKQRELVAAITSQGRITLADSVKGRFTISSDNTKNTVFLQMNSLKPEDTAVYYCNAWTTLGTFGGQGTQVTVSS
